US20110200608A1 (UNIVERSITY OF PITTSBURGH OF THE COMMONWEALTH SYSTEM OF …, published 2011)
Bridges are numbered along the chain shown (N, C = ends). Where no end group is shown, it is not given here.

Legend:
[1] = biological target: T1, HMW-MAA-specific human scFv C21 (biotinylated (NHS-LC-biotin) in the competition and panning assays); experiment: SPR (Biacore 3000, 25 C), peptide over amine-coupled scFv C21, koff/kon
[2] = biological target: T1, HMW-MAA-specific human scFv C21; experiment: SPR (Biacore 3000, 25 C), peptide over amine-coupled scFv C21, 1:1 Langmuir fit
[3] = biological target: T1, HMW-MAA-specific human scFv C21; experiment: inhibition cell ELISA: peptide incubated 2 h at 4 °C with PP scFv C21 (1:1600) and biotinylated mAb 9E10, then added to Colo38 cells, SA-HRP; blocked ligand: HMW-MAA on Colo38 cells
[4] = biological target: T1, HMW-MAA-specific human scFv C21; experiment: calculated from a molecular docking model (…); not measured

T1 sequence (chain, as listed by the source): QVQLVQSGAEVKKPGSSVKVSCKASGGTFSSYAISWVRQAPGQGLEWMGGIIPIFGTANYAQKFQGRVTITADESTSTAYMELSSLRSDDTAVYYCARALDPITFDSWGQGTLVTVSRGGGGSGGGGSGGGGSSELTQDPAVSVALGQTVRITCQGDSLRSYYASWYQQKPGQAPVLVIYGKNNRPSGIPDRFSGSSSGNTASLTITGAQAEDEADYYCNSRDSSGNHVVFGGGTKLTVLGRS

Row | Kd [1] [µM] | koff [2] [s⁻¹] | kon [2] [M⁻¹ s⁻¹] | IC50 (read off the curve) [3] [µM] | Total Energy (calculated binding energy) [4] [kcal/mol] | Binder
1 | 30.2 | 0.0655 | 2170 | ~1 | -7.3 | RPYRYDPLGDLKSRH [peptide P3C21 (RPYRYDPLGDLKSRH), linear]
2 | 3.34 | 0.00307 | 917 |  | -16.4 | RPYRYDPLGSLKSRH [peptide P3S10 (RPYRYDPLGSLKSRH)]
3 | 8.24 | 0.0097 | 1180 | ~3 | -93.8 | SPSWYCPDCDKRPLV (disulfide 6-9 (inferred), Synthetic peptide) [peptide P1C21 (SPSWYCPDCDKRPLV), cyclized]
